Laboratory results reported in patent US10149922B1, “Engineered collagen matrices for myocardial therapy” (The Board of Trustees of the Leland Stanford Junior …, priority 2012, dated 2018).

B1: Fstl1: Secreted glycoprotein encoded by the FSTL1 gene (SEQ ID NO: 1, UniProt Q12841); recombinant protein purchased from ADIPO BIOSCIENCE (protein, listed as Homo sapiens)
chain: MWKRWLALALALVAVAWVRAEEELRSKSKICANVFCGAGRECAVTEKGEPTCLCIEQCKPHKRPVCGSNGKTYLNHCELHRDACLTGSKIQVDYDGHCKEKKSVSPSASPVVCYQSNRDELRRRIIQWLEAEIIPDGWFSKGSNYSEILDKYFKNFDNGDSRLDSSEFLKFVEQNETAINITTYPDQENNKLLRGLCVDALIELSDENADWKLSFQEFLKCLNPSFNPPEKKCALEDETYADGAETEVDCNRCVCACGNWVCTAMTCDGKNQKGAQTQTEEEMTRYVQELQKHQETAEKTKRVSTKEI

Assays:
[1] = system: FSTL1-induced proliferation of immature cardiomyocytes; assay: Screen of signal transduction inhibitors on FSTL1-induced proliferation; type: cell-based; settings: EMD StemSelect compound library
Description: (§1) Experiments were conducted to analyze the proliferative response of early cardiomyocytes to FSTL1. 7 days following FSTL1 treatment, we observed that a remarkable 50% of the differentially expressed transcripts are known targets of the JAK/STAT and interferon related (IFR) pathways.

[2] = system: mESC-derived immature cardiomyocytes (mCM-d2); assay: Number of α-actinin+ cardiomyocytes in mCM-d2 cultures; type: cell-based, mouse; settings: 10 ng/ml, eight days of treatment
Description: (§2) H2B-mCherry EMCs were maintained in DMEM with 10% FBS and antibiotics/antimycotic. Myh6-Puro^r;Rex-Blast^r mESCs were generated by Lentiviral transduction and Blasticidin selection, and then cultured. For cardiac differentiation, ESCs were cultured in Iscove's Modified Dulbecco Media (IMDM) supplemented with 10% FBS, 2 mM glutamine, 4.5×10^−4 M monothioglycerol, 0.5 mM ascorbic acid, 200 ug/mL transferrin (Roche), 5% protein-free hybridoma media (PFHM-II, Invitrogen) and antibiotics/antimycotic and differentiated as either embryoid bodies (EBs) formation or monolayer. Puromycin was added at differentiation day 10 for two days to enrich cardiomyocyte. The cells were then trypsinized and plated as monolayer cardiomyocytes. Conditioned media were collected after 2 days culturing of confluent EMC cells and passed through 0.22 um filters (Millipore). Control conditioned media were prepared the same way without EMC cells. Recombinant Fstl1 was purchased from ADIPO BIOSCIENCE.
We utilized an epicardial/mesothelial cell line (EMC) to investigate the interaction between epicardium and myocardium.
We applied 10 ng/ml purified hFstl1 onto the mCM-d2 system of ESC-derived early cardiomyocytes, similarly to the coculture and conditioned media experiments described in FIG. 2.

[3] = system: mESC-derived immature cardiomyocytes (mCM-d2); assay: Q-RT-PCR of cardiac-specific markers in mCM-d2; type: cell-based, mouse; settings: 10 ng/ml, eight days of treatment
Description: as §2
Total RNA was extracted with TRIzol (Invitrogen) and reverse transcribed to cDNA with QuantiTect Reverse Transcription Kit (Qiagen) according to the manufacturer's instructions. cDNA samples synthesized from 100 ng of total RNA were subjected to RT-QPCR with LightCycler 480 SYBR Green I Master kit (Roche) performed with LightCycler 480 Real-Time PCR System (Roche).

[4] = system: mESC-derived immature cardiomyocytes (mCM-d2); assay: Kinetic Image Cytometry of rhythmic calcium transients in mCM-d2; type: cell-based, mouse; settings: 10 ng/ml, eight days of treatment, mCM-d2, KIC analysis
Description: as §2
Kinetic Image Cytometer from Vala was used as instructed to record intracellular calcium transient with Fluo4 NW calcium indicator (Life Science). Data was processed using Cyteseer (Vala).

[5] = system: mCM-d2; assay: phospho-Histone3 proliferation in mCM-d2; type: cell-based, mouse; settings: mCM-d2 treated for 48 hrs
[6] = system: Neonate Rat Ventricular Cardiomyocytes (NRVC); assay: Cell cycle profile of neonate rat ventricular cardiomyocytes (flow cytometry); type: cell-based; settings: NRVC treated for 24 hours
Description: Ventricular cardiomyocytes were isolated with neonatal rat cardiomyocyte isolation kit (Cellutron) and cultured at 37° C. with 5% CO2. In brief, ventricles were dissected from 1-2-d-old Hsd:SD rats (Sprage Dawley), then digested five times for 15 min each with the enzyme cocktail at 37° C. Cells were pooled, preplated for 90 min on an uncoated dish to remove fibroblasts, and plated on 1% gelatin-coated cell culture plastic dishes in high-serum media (DME/F12 [1:1], 0.2% BSA, 3 mM sodium-pyruvate, 0.1 mM ascorbic acid, 4 mg/liter transferrin, 2 mM L-glutamine, and 5 mg/liter ciprofloxacin supplemented with 10% horse serum and 5% FCS) at 3×10^5 cells/cm2. After 24 h, media was changed to low-serum medium (same but with 0.25% FCS) and cultured until use.
The cell cycle profile of cardiac cells was analyzed as described. In brief, cells were fixed for 1 h at 4° C. with 0.25% PFA and then permeabilized for 15 min at 37° C. with 0.2% Tween 20 before incubation with α-actinin and secondary antibodies (Alexa 488—conjugated anti-mouse Ig) diluted 1:100 in FACS buffer (PBS with 1% goat serum and 0.1% NaN3). Cells were then stained with 10 μg/ml propidium iodide in FACS buffer supplemented with 500 μg/ml of RNAase A. Flow cytometry was performed on BD FACSCanto. FlowJo and ModFit software were used to analyze the results.

[7] = system: early cardiomyocytes; assay: Whole transcriptome profiling of early cardiomyocytes after FSTL1 treatment; type: cell-based; settings: 7 days following FSTL1 treatment
Description: In one approach, whole transcriptome profiling after long and short term treatment is used. Transcriptome profiling is a common approach to gain insight into signaling pathways through the analysis of pathway selective gene expression. Responsive cells selected in the previous experiments are incubated with FSTL1 for 24 hours (short-term) or 7 day (long-term). Transcripts are profiled using microarrays (Affymetrix). Candidate factors are then validated functionally using small molecule inhibitors (if available) and/or siRNA.
as §1

[8] = system: mouse MI model; assay: Route of FSTL1 delivery in the mouse MI model; type: in vivo; settings: compared to epicardial-localized delivery
Description: Key variables, including time of delivery and the effectiveness following reperfusion. A second critical issue concerns the localized site of FSTL1 delivery. Systemic delivery was not effective in the mouse MI model, compared to epicardial-localized delivery. However, the present the epicardial biomaterial patch itself may provide an effective physical support that could synergize with a systemic FSTL1 delivery. FSTL1 must be delivered epicardial to be effective, and may done by impregnated into the collagen of the patch.

| Molecule | effect on FSTL1-induced proliferation [1] | increase in the number of cardiomyocytes [2] | increase in mRNA content of contractile proteins (including Myh6, Mlc2v, and Mlc2a) [3] | increase in the number of cardiomyocytes displaying rhythmic calcium transient [4] | phospho-Histone3+ cells [5] | percentage of cells in S/G2/M phase [6] | differentially expressed transcripts that are known targets of the JAK/STAT and interferon related (IFR) pathways [7] | efficacy of systemic delivery [8] |
| --- | --- | --- | --- | --- | --- | --- | --- | --- |
| C[C@H](NC(=O)/C(C#N)=C/c1cccc(Br)n1)c1ccccc1 [WP1066] | blocked |  |  |  |  |  |  |  |
| B1 |  | 4 fold | 2-3 folds | 7-8 folds | significantly more | significantly increased | 50% | not effective |
